Substitutions are numbered along the chain they refer to. Names and notes keep the numbering of the source.
B1: non-phosphorylated Cdc37 (natural protein)
chain: MVDYSVWDHIEVSDDEDETHPNIDTASLFRWRHQARVERMEQFQKEKEELDRGCRECKRKVAECQRKLKELEVAEGGKAELERLQAEAQQLRKEERSWEQKLEEMRKKEKSMPWNVDTLSKDGFSKSMVNTKPEKTEEDSEEVREQKHKTFVEKYEKQIKHFGMLRRWDDSQKYLSDNVHLVCEETANYLVIWCIDLEVEEKCALMEQVAHQTIVMQFILELAKSLKVDPRACFRQFFTKIKTADRQYMEGFNDELEAFKERVRGRAKLRIEKAMKEYEEEERKKRLGPGGLDPVEVYESLPEELQKCFDVKDVQMLQDAISKMDPTDAKYHMQRCIDSGLWVPNSKASEAKEGEEAGPGDPLLEAVPKTGDEKDVSV
notes: human Hsp90 co-chaperone Cdc37, expressed from pET28 (gift of C. Vaughan; Vaughan et al., 2006), not phosphorylated; Used in ITC and in the auto-phosphorylation assay and in the comparison with the phosphorylated form; No tag removal step is described; also called CDC37^Apo; Cdc37^Apo; source: E. coli C41 (DE3), purified (HisTrap, HiTrap Q, Superdex 200)
B2: FGFR3 kinase domain variant E466K (domain or fragment)
chain: SELELPADPKWKLSRARLTLGKPLGEGCFGQVVMAEAIGIDKDRAAKPVTVAVKMLKDDATDKDLSDLVSEMEMMKMIGKHKNIINLLGACTQGGPLYVLVEYAAKGNLREFLRARRPPGLDYSFDTCKPPEEQLTFKDLVSCAYQVARGMEYLASQKCIHRDLAARNVLVTEDNVMKIADFGLARDVHNLDYYKKTTNGRLPVKWMAPEALFDRVYTHQSDVWSFGVLLWEIFTLGGSPYPGIPVEELFKLLKEGHRMDKPANCTHDLYMIMRECWHAAPSQRPTFKQLVEDLDRVLTVTSTDEYLDLSAPFE
notes: FGFR3 kinase domain, amino acids 455-768 of human FGFR3, disease-linked (cancer) mutation E466K; also called FGFR3^E466K; source: E. coli C41 (DE3), co-expressed with lambda phosphatase, purified (HisTrap, HiTrap Q, Superdex 200)
B3: FGFR3 kinase domain variant I538F (domain or fragment)
chain: B2 chain with K12E, I84F
notes: FGFR3 kinase domain, amino acids 455-768 of human FGFR3, disease-linked (cancer) mutation I538F; pJ821 construct; 15N labelled for NMR; also called FGFR3^I538F; GFR3^I538F; source: E. coli C41 (DE3), co-expressed with lambda phosphatase, purified (HisTrap, HiTrap Q, Superdex 200); not shown: His-SUMO, N-terminal, cleaved
B4: FGFR3 kinase domain variant N540K (domain or fragment)
chain: B2 chain with K12E, N86K
notes: FGFR3 kinase domain, amino acids 455-768 of human FGFR3, disease-linked mutation N540K; pJ821 construct; also called FGFR3^N540K; source: E. coli C41 (DE3), co-expressed with lambda phosphatase, purified (HisTrap, HiTrap Q, Superdex 200); not shown: His-SUMO, N-terminal, cleaved

Experiments:
Settings in all cases: both partners purified
[1] = molecular target: B3; assay: ITC; kinase domain in the cell (FGFR3 WT 19.4 μM, FGFR3 I538F 16.9 μM), Cdc37 Apo 211.7 μM in the syringe; 25 mM Tris.Cl, 50 mM NaCl, 5 mM MgCl2, 0.1 mM TCEP, pH 7.5, 20 °C; single site model
[2] = molecular target: T1, Hsp90α (human, UniProt P07900 1-732); assay: SEC; ternary mixture: 15 μM kinase, 15 μM Cdc37, 30 μM Hsp90α (1:1:2), 15 min at 4 °C; Superdex 200 Increase, 25 mM Tris.Cl, 150 mM NaCl, 1 mM TCEP, pH 8.0, 4 °C; fractions by SDS-PAGE and ELISA
T1 construct: human Hsp90α, expressed from pRSET (gift of C. Vaughan; Vaughan et al., 2006); Used at a 2:1:1 ratio to Cdc37 and kinase; source: E. coli C41 (DE3), purified (HisTrap, HiTrap Q, Superdex 200)

[3] = molecular target: B1; assay: ITC; kinase domain in the cell (FGFR3 WT 19.4 μM, FGFR3 I538F 16.9 μM), Cdc37 Apo 211.7 μM in the syringe; 25 mM Tris.Cl, 50 mM NaCl, 5 mM MgCl2, 0.1 mM TCEP, pH 7.5, 20 °C; single site model

Binder	stoichiometry N [1]	binding result [2]	Kd [3] [µM]
B1	1		
B2		binds	
B3		binds	1.8
B4		binds	

— publication PMC5846801, “Disease Variants of FGFR3 Reveal Molecular Basis for the Recognition and Additional Roles for Cdc37 in Hsp90 Chaperone System” (Structure(London, England:1993), 2018)
